What is called Kd is the equilibrium constant for the complex coming apart. The low end stands for higher affinity, the high end for lower affinity. For orientation: koff means the rate constant with which the complex falls apart. Higher therefore signals fast dissociation. As a reminder, the kon is a measure of how fast the partners come together. For orientation: IC50 means the concentration at which inhibition is half-maximal. A high value points to weaker potency in that assay. The term EC50 denotes the concentration at which the effect is half-maximal. Low values mean a more potent agent, high ones a less potent agent.

The values that follow come from patent publication US20210284724A1 (I MAB BIOPHARMA US, published 2021).

Test [1] concerns the target T1, human CXCL13 (human, UniProt O43927 23-109).
T1 construct: also called huCXCL13; rhCXCL13
T1 sequence (looked up): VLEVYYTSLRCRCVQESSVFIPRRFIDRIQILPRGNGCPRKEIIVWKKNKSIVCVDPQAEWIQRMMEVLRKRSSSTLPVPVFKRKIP
Description: SPR Biacore 8K, Fab over immobilised CXCL13. The method, then: HuCXCL13 binding affinity by Surface Plasmon Resonance. 411A11E9, 415A3D1, 64C10G1, 21H12D9, 329F2E1, 71F4A3 were selected to produce Fab and tested binding affinity. The binding of the antibodies to huCXCL13 was examined by Biacore 8K. 10 mM HEPES, 150 mM NaCl, 3 mM EDTA, 0.05% Tween-20, pH 7.4 served as running buffer and 10 mM glycine-HCl, pH2.0 served as regeneration buffer. CXCL13 protein was immobilized on Sensor Chip CM5 using amine coupling method (immobilization level ˜30RU). The serial concentrations of Fab (0-16 nM) were injected over immobilized CXCL13 at the flow rate of 30 μl/min. The dissociation phases were 600s.
A general note: SPR reads the build-up and loss of mass on a sensor chip optically.

The target in test [2] is T1, human CXCL13. Description: cell-based blocking ELISA, CXCL13 to CHO-K1-CXCR5. The method, then: Splenocytes were electro-fused with mouse myeloma cell line SP2/0 cells and plated into 96-well culture plate. The hybridoma supernatants were tested by ELISA binding assay for anti-human CXCL13 binders. Supernatants of positive binding clones were screened for function in blocking of human CXCL13 binding to its […] CXCR5 by Cell-based receptor blocking ELISA assay. Briefly, 5×10⁴ CHO-K1-CXCR5 cells were plated in 96-well plate with 100 μl of culture medium and incubated at 37° C. overnight. Cells were fixed with 100 μl of 2% PFA at RT for 1 hr after washing with PBS for 1 time. Blocking was done with 1% BSA in PBST for 1 hr at RT. Supernatants were diluted with PBS and pre-incubated with equal volume of 0.3 μg/ml human CXCL13 for 30 min at RT. 100 μl of antibody-antigen complex was then transferred into each cell wells for 30 min at RT. The samples were washed with 1×PBST for 3 times and 100 μl of 3 μg/ml of human Mab5261 antibody was add into each well to capture human CXCL13 and anti-human Fc-HRP was used to indirectly detect human CXCL13 when it bound to CHO-K1-CXCR5 cells. […] Reading was done at […].
Those antibodies were purified from hybridoma supernatants by binding with Protein G column and characterized by ELISA binding assays and cell-based blocking ELISA assays. […] 11/20 clones bound to both human CXCL13 and cynomolgus CXCL13 appeared to completely block human CXCL13 to human CXCR5. 11 blockers bound to both huCXCL13 and cynoCXCL13 were produced as chimeric human IgG1 antibodies for further Characterization.
In general terms: An ELISA detects its analyte on a solid surface through an enzyme-linked reagent.

For test [3], the target named is T1, human CXCL13. Briefly: ELISA, coated antigen.
For the next test, the target named is T2, cynomolgus CXCL13 (cynomolgus, UniProt H6WS58 23-109).
T2 construct: also called cynoCXCL13; Cyno CXCL13
T2 sequence: T1 sequence (looked up) with S8H, L32S, I52V, M65I, V68M, R72K, L77P
Briefly: ELISA, coated antigen.

Another test has as its target T3, mouse CXCL13 (mouse, UniProt O55038 22-109).
T3 construct: also called rmCXCL13
T3 sequence (looked up): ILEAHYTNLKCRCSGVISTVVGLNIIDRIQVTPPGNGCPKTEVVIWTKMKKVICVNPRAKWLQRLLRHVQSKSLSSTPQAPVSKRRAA
Briefly: ELISA, coated antigen.

The target of test [4] is T1, human CXCL13. Briefly: SPR Biacore T200. The method, then:
To further optimization of 71F4-B, each Mutations in 71F4A3 useful for improving binding (Kon) were added into 71F4-B, the sequences were listed in Table 28. Antibodies according to these sequences were generated and affinity testing was performed by Biacore T200.

Substitutions are numbered along the chain they refer to.

B1: 329F2E1 chimeric Fab (Fab, V domains shown)
VH: EVKLLQSGGGLVQPGGSLKLSCAASGIDFSRYWMSWVRRAPGKGLEWIGEINPDSSTINYAPSLKDKFIISRDNAKNTLYLQMSKVRSEDTALYYCARQDDYDYYAMDYWGQGTSVTVSS
VL: DIVMTQSHKFMSTSVGDRVSITCKASQDVSTGVAWYQQKPGQSPKLLIYSASYRYTGVPDRFTGSGSRTDFTFTISSVQTEDPAVYYCHQYYTIPLTFGAGTELELK
notes: Fab
For B1, in the test with human CXCL13 [1], the Kd was 0.602 nM, the koff came to 0.000581 s⁻¹ and the kon came to 966000 M⁻¹ s⁻¹.

B2: 178E2B3 (antibody, V domains shown)
VH: QVQLQQSGAELVRPGTSVKVSCKASGYAFTNHLIEWVKQRPGQGLEWIGVINPGSGGTKYNEKFKGKATVTADKSSSTVYMQLNSLTSEDSAVYFCARSSDGYYEEDYFDYWGQGTTLTVSS
VL: QIVLTQSPAIMSASPGEKVTMTCSASSSVNYMQWYQQKSGTSPKRWIYDTSELASGVPDRFSGSGSGTSYSLTISSMEAEDVATYYCQQWSSDPITFGAGTKLELK
notes: Hybridoma mAb
B2 yielded an IC50 with human CXCL13 [2] of 0.974 µg/mL. The molecule also came in with an EC50 with human CXCL13 [3] of 0.0153 µg/mL. In addition, the binding result with cynomolgus CXCL13 and in the test with mouse CXCL13 was “no binding” in each case.

B3: 345G1B4 (antibody, V domains shown)
VH: QVTLKESGPGILQPSQTLSLTCSFSGFSLSTSNMGVGWIRQPSGKGLEWLAHIWWDDVKRYNPALKSRLTISKDTSSSQVFLKIASVDTADTATYYCARSTTLVAFDYWGQGTTLTVSS
VL: DIVMTQSPSSLTVTAGEKVTMSCKSSQSLLNSGNQKNYLTWYQQKPGQPPKLLIYWASTRESGVPDRFTGSGSGTDFTLTISSVQAEDLAVYYCQNDYSYPTFGGGTKLEIK
notes: Hybridoma mAb
Regarding B3, in the test with human CXCL13 [2], half-maximal inhibition (IC50) was put at 3.24 µg/mL. The molecule also displayed an EC50 with human CXCL13 [3] of 0.0138 µg/mL. Besides, the binding result with cynomolgus CXCL13 and with mouse CXCL13 was “no binding” in each case.

B4: 396A5A1 (antibody, V domains shown)
VH: B3 VH with N33G, V36I, V58I, I71V, S77T, K83N, T92I, Y96F, L103V
VL: B3 VL with V3L, S71T, V91I, S99D
notes: Hybridoma mAb
In the test with human CXCL13 [2], B4 registered a 50% inhibitory concentration (IC50) of 1 µg/mL. Besides, in the test with human CXCL13 [3], the EC50 was 0.0135 µg/mL. The binding result with cynomolgus CXCL13 and with mouse CXCL13 was “no binding” each time.

B5: 181B11G12 (antibody, V domains shown)
VH: EVKLVESEGGLVQPGSSMKLSCTASGFTFSDYYMAWVRQVPEKGLEWVANINYDGSDTYYLDSLKSRFIISRDNAKNILYLQMSSLKSEDTATYYCVRDVAYDDSYAMDYWGQGTSVTVSS
VL: DIQMTQSPSSLSASLGGKVTITCKASQDINKYIAWYQHKPGKGPRLLIHYTSTLQPGIPSRFSGSGSGRDYSFSISNLEPEDIATYYCLQYDSLYTFGGGTKLEIK
notes: Hybridoma mAb
For B5, the IC50 with human CXCL13 [2] came to 0.703 µg/mL. Also, a half-maximal response with human CXCL13 [3] (EC50) required 0.0223 µg/mL. Further, the binding result with cynomolgus CXCL13 and in the test with mouse CXCL13 was “no binding” in each case.

B6: 409G9C2 (antibody, V domains shown)
VH: EVQLQQSGPGLVKPSGTLSLTCAVSGGSITSSYWWTWVRQPPGKGLEWIGEIYHSGRPNYNPSLKSRATISVDKSRNQFSLNLTSVTAADTAVYYCAKTAAVSYWYFDLWGRGTLVTVSS
VL: DIKMNQSPSSMSASLGDRVTITCQASQDIGNDLIWFQQKPGKSPRPLIYYASNLANGVPSRFSGRRSESNYSLTISSLESEDMADYHCLQFKQYPFTFGAGTKLELK
notes: Hybridoma mAb
B6: the IC50 in the test with human CXCL13 [2] was 11.7 µg/mL. For the same molecule, the concentration for a half-maximal effect (EC50) was found to be 2.27 µg/mL in the test with human CXCL13 [3] and 0.538 µg/mL with mouse CXCL13. For the same molecule, in the test with cynomolgus CXCL13, the binding result is listed as “no binding”.

B7: 410A4D10 (antibody, V domains shown)
VH: EVQLQQSGPGLVRPSGTLSLTCAVSGGSISSRNWWGWVRQPPGKGLEWIGEIYHSGGTNYNPSLKSRVTISVDKSKNQFSLKLSSVTAADTAVYYCAREFGDSVWYFDLWGRGTLVTVSS
VL: B6 VL with K3V, M4I, N5T, I34V, S52T, N56D, N70K, S77N, F96Y
notes: Hybridoma mAb
B7 registered an IC50 with human CXCL13 [2] of 8.38 µg/mL. The EC50 in the test with human CXCL13 [3] came to 2.14 µg/mL; with mouse CXCL13, 0.761 µg/mL. The binding result with cynomolgus CXCL13 is recorded as “no binding”.

B8: 71F4-B-A (antibody, V domains shown)
VH: EVQLVESGGGLVQPGGSLRLSCAASGIDFSRYWMSWVRQAPGKGLEWVAEINPEASTINYAPSLKDRFTISRDNAKNSLYLQMNSLRAEDTAVYYCARQDDYEYYTMDYWGQGTTVTVSS
VL: DIQMTQSPSSLSASVGDRVTITCKVSQDVNTGVAWYQQKPGKAPKLLIYSASYRYTGVPSRFSGSGSGTDFTFTISSLQPEDIATYYCQQYYSTPLTFGGGTKLEIK
In the test with human CXCL13 [4], B8 came in with a Kd of 0.388 nM, an off-rate (koff) of 6.82e-05 s⁻¹ and a kon of 176000 M⁻¹ s⁻¹.

B9: 71F4-B-SSH (antibody, V domains shown)
VH: B8 VH with A55S, T57S, E103S, Y104H
VL: B8 VL
Turning to B9, in the test with human CXCL13 [4], the Kd turned out to be 0.377 nM, the koff was 9.46e-05 s⁻¹ and the kon worked out at 251000 M⁻¹ s⁻¹.

B10: 71F4-B-L (antibody, V domains shown)
VH: B8 VH with A55S, E103L
VL: B8 VL
For B10, in the test with human CXCL13 [4], binding was put at a Kd of 0.443 nM, the off-rate (koff) is 8.58e-05 s⁻¹ and the kon amounted to 194000 M⁻¹ s⁻¹.

B11: 71F4-B-T (antibody, V domains shown)
VH: B8 VH with A55S, Y104T
VL: B8 VL
notes: also called 71F4A3-B-T
In the test with human CXCL13 [4], B11 had a Kd of 0.0456 nM, a koff of 1.17e-05 s⁻¹ and a kon of 256000 M⁻¹ s⁻¹.

B12: 71F4-B-H (antibody, V domains shown)
VH: B8 VH with A55S, Y104H
VL: B8 VL
notes: also called 71F4A3-B-H
In the test with human CXCL13 [4], B12 yielded a Kd of 0.0647 nM, a koff of 1.27e-05 s⁻¹ and a kon of 197000 M⁻¹ s⁻¹.

B13: 71F4-B-S2 (antibody, V domains shown)
VH: B8 VH with A55S, E103S
VL: B8 VL
In the test with human CXCL13 [4], B13 returned a Kd of 0.52 nM, a koff of 0.000268 s⁻¹ and a kon of 515000 M⁻¹ s⁻¹.

B14: 71F4-B-ASH (antibody, V domains shown)
VH: B8 VH with T57S, E103S, Y104H
VL: B8 VL
In the test with human CXCL13 [4], B14 came in with a Kd of 0.521 nM, a koff of 9.17e-05 s⁻¹ and a kon of 176000 M⁻¹ s⁻¹.

B15: 71F4-B-S1 (antibody, V domains shown)
VH: B8 VH with A55S, T57S
VL: B8 VL
Consider B15, for which, in the test with human CXCL13 [4], the Kd was 0.404 nM, the koff was 9.26e-05 s⁻¹ and the on-rate (kon) was determined as 229000 M⁻¹ s⁻¹.

B16: 71F4-B-SH (antibody, V domains shown)
VH: B8 VH with A55S, E103S, Y104H
VL: B8 VL
Take B16: in the test with human CXCL13 [4], binding was characterised by a dissociation constant (Kd) of 0.29 nM, the koff stood at 5.55e-05 s⁻¹ and the kon was determined as 192000 M⁻¹ s⁻¹.

B17: 71F4-B-LT (antibody, V domains shown)
VH: B8 VH with A55S, E103L, Y104T
VL: B8 VL
notes: also called 71F4A3-B-LT
On to B17, for which, in the test with human CXCL13 [4], the affinity, expressed as Kd, was 0.0435 nM; the koff was 1.02e-05 s⁻¹; the kon was 235000 M⁻¹ s⁻¹.

B18: 71F4-B-AS (antibody, V domains shown)
VH: B8 VH with T57S
VL: B8 VL
In the test with human CXCL13 [4], B18 gave a Kd of 0.321 nM, a koff of 7.25e-05 s⁻¹ and a kon of 226000 M⁻¹ s⁻¹.
